± gives the standard error. For part of these data: Variants at the floor of the assay were thinned out.
B1: glmS ribozyme (parent)
chain: AUAAAAGCGCCAGAACUACAGAAAUGUAGUUGACGAGGAGGAGGUUUAUCGAAUUUUCGGCGGAUGCCUCCAAA

Columns and labels:
Details in all cases: with glucosamine-6-phosphate
[1] = variants of: B1; experiment: kcat; higher = faster cleavage; RNA array
How it was run: (§1)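 On sequenced MiSeq chips, barcoded ribozyme variants were made in situ by E. coli RNA polymerase and followed at 37 °C through a hybridised Cy3 probe. Glucosamine-6-phosphate was flowed in at 40 μM to 10 mM in HEPES/KCl/Mg(OAc)2 buffer. Exponential fits to normalised per-tile medians gave kobs, and weighted Michaelis–Menten fits gave kcat and KM.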

[2] = variants of: B1; experiment: KM; higher = weaker cofactor use; RNA array
How it was run: as §1

[3] = variants of: B1; experiment: self-cleavage kobs at 40 uM GlcN6P; higher = faster cleavage; RNA array
How it was run: as §1

[4] = variants of: B1; experiment: self-cleavage kobs at 640 uM GlcN6P; higher = faster cleavage; RNA array
How it was run: as §1

[5] = variants of: B1; experiment: self-cleavage kobs at 2500 uM GlcN6P; higher = faster cleavage; RNA array
How it was run: as §1

[6] = variants of: B1; experiment: self-cleavage kobs at 10000 uM GlcN6P; higher = faster cleavage; RNA array
How it was run: as §1

[7] = variants of: B1; experiment: self-cleavage kobs at 160 uM GlcN6P; higher = faster cleavage; RNA array
How it was run: as §1

| Variant | kcat [1] [s⁻¹] | KM [2] [µM] | self-cleavage kobs at 40 uM GlcN6P [3] [s⁻¹] | self-cleavage kobs at 640 uM GlcN6P [4] [s⁻¹] | self-cleavage kobs at 2500 uM GlcN6P [5] [s⁻¹] | self-cleavage kobs at 10000 uM GlcN6P [6] [s⁻¹] | self-cleavage kobs at 160 uM GlcN6P [7] [s⁻¹] |
| --- | --- | --- | --- | --- | --- | --- | --- |
| C16U A52U | 0.00041 ± 1.4e-05 | 5030 ± 320 | < 1e-05 | 4.82e-05 ± 1.2e-05 | 0.000132 ± 2.2e-05 | 0.000274 ± 2.9e-05 | – |
| A6U C71G | 3.27e-05 ± 8.4e-06 | – | – | 5.72e-05 ± 1.3e-05 | 2.85e-05 ± 1e-05 | 2.69e-05 ± 8e-06 | – |
| C50G C58A G62C G63C C70A | 0.000121 ± 3.1e-05 | – | 4.49e-05 ± 1.7e-05 | 0.000166 ± 4.1e-05 | 0.000239 ± 5.5e-05 | 9.95e-05 ± 1.6e-05 | 0.000204 ± 4.8e-05 |
| C50U A52G | 1.11e-05 ± 2.8e-06 | – | – | – | – | – | – |
| U47G U49A | 1.31e-05 ± 3.3e-06 | – | – | – | – | – | – |
| G38U G51U | < 1e-05 | – | – | – | – | – | – |
| G40U A64G | 0.000292 ± 2.9e-05 | 1790 ± 360 | – | 8.19e-05 ± 1.2e-05 | 0.000145 ± 2.8e-05 | 0.00026 ± 3.3e-05 | – |
| C50A A52C | < 1e-05 | 2730 ± 690 | < 1e-05 | < 1e-05 | – | – | < 1e-05 |
| A15C G44U | 4.07e-05 ± 6.1e-06 | – | < 1e-05 | – | – | – | < 1e-05 |
| G38C G51C | 1.04e-05 ± 4.5e-06 | – | – | – | – | – | – |
| C11U A14U C16G | 0.000375 ± 7.9e-05 | – | – | – | 6.42e-05 ± 2.5e-05 | 0.000164 ± 3.4e-05 | – |
| C11A C50A | 1.11e-05 ± 3.1e-06 | – | – | – | – | – | – |
| A12U G13A C50G C67U | 0.000171 ± 2.5e-05 | – | 0.000107 ± 2.3e-05 | 0.000169 ± 4.2e-05 | 0.000208 ± 3.6e-05 | 0.000124 ± 3.4e-05 | 0.000201 ± 5.7e-05 |
| C10A U47A U57A C70U | 3.44e-05 ± 1.3e-05 | – | – | – | – | – | – |
| C11A G29U | 3.97e-05 ± 4.4e-06 | – | – | – | 3.72e-05 ± 1.1e-05 | 3.56e-05 ± 8.9e-06 | – |
| U46A G62A | < 1e-05 | – | < 1e-05 | – | < 1e-05 | – | – |
| G43U A53C | 2.22e-05 ± 5.7e-07 | 7310 ± 400 | – | – | – | – | – |
| U47A C67A | 0.00576 ± 0.0027 | – | 0.000186 ± 2.7e-05 | 0.0014 ± 0.00021 | 0.00288 ± 0.00043 | 0.00568 ± 0.0013 | 0.000303 ± 5.4e-05 |
| U45A U49G | 0.00163 ± 0.00032 | 1560 ± 570 | 5.25e-05 ± 1e-05 | 0.000385 ± 5.1e-05 | 0.0012 ± 0.00012 | 0.00132 ± 0.00015 | 0.000194 ± 4.9e-05 |
| G40U U49G | 8.53e-05 ± 3.1e-05 | – | – | – | 9.77e-05 ± 2e-05 | 6.94e-05 ± 1.1e-05 | – |

| Variant | kcat [1] [s⁻¹] | KM [2] [µM] | self-cleavage kobs at 40 uM GlcN6P [3] [s⁻¹] | self-cleavage kobs at 640 uM GlcN6P [4] [s⁻¹] | self-cleavage kobs at 2500 uM GlcN6P [5] [s⁻¹] | self-cleavage kobs at 10000 uM GlcN6P [6] [s⁻¹] | self-cleavage kobs at 160 uM GlcN6P [7] [s⁻¹] |
| --- | --- | --- | --- | --- | --- | --- | --- |
| U49G C61A | 1.48e-05 ± 3.5e-06 | – | – | – | – | – | – |
| G44C A53G | 0.000232 ± 7.9e-06 | 3060 ± 220 | – | 3.96e-05 ± 1.4e-05 | 0.000105 ± 1.9e-05 | 0.000177 ± 3e-05 | – |
| A48G C50A G63A | < 1e-05 | – | – | – | – | < 1e-05 | < 1e-05 |
| A15C A42G A53C | 0.00239 ± 0.001 | – | – | 0.000469 ± 0.00012 | 0.000746 ± 0.00018 | 0.00192 ± 0.00042 | – |
| A12U A48G | 0.000185 ± 3.6e-05 | – | – | 9.16e-05 ± 1.3e-05 | 0.000246 ± 3e-05 | 0.000156 ± 1.5e-05 | 2.8e-05 ± 1.2e-05 |
| A12G G37U | < 1e-05 | – | – | – | – | < 1e-05 | – |
| A15U C68G | 4.37e-05 ± 1e-05 | – | – | 2.81e-05 ± 1.4e-05 | 4.48e-05 ± 1e-05 | – | – |
| C11A C71U | 0.000122 ± 1.1e-05 | 451 ± 210 | – | 7.03e-05 ± 1.1e-05 | 0.000147 ± 2.3e-05 | 0.000113 ± 8e-06 | – |
| C11A G13A | < 1e-05 | – | < 1e-05 | – | – | – | – |
| U47C U49C | < 1e-05 | – | – | < 1e-05 | – | – | – |
| A52U A64G | 0.000348 ± 8.9e-05 | – | – | – | 0.00023 ± 3.8e-05 | 0.000262 ± 3.6e-05 | – |
| A53U C58A | 0.000327 ± 1.5e-05 | 3010 ± 250 | – | 5.94e-05 ± 5.9e-06 | 0.000143 ± 1.3e-05 | 0.000256 ± 2.2e-05 | – |
| G59A U69C | 5.07e-05 ± 2.8e-06 | 943 ± 240 | – | – | – | 4.7e-05 ± 1e-05 | – |
| C11A A53G | 0.000202 ± 9.2e-06 | 2130 ± 240 | – | 4.47e-05 ± 1e-05 | 0.000112 ± 1.2e-05 | 0.000164 ± 1.8e-05 | – |
| C50A A53C U57G C58G | 6.76e-05 ± 2.5e-05 | – | – | 0.000112 ± 2.3e-05 | 8.01e-05 ± 1.9e-05 | – | – |
| U47C U54G | 0.00375 ± 0.00045 | 1210 ± 200 | 0.000121 ± 1.7e-05 | 0.0013 ± 0.00028 | 0.00193 ± 0.00076 | 0.00359 ± 0.00065 | – |
| A6G A14C U54G | 3.49e-05 ± 4.1e-06 | – | – | – | 3.32e-05 ± 1.2e-05 | 3.47e-05 ± 1.5e-05 | – |
| A48G C70G | 6.2e-05 ± 1.1e-05 | – | – | 8.57e-05 ± 1.8e-05 | 7.26e-05 ± 1.6e-05 | 5.25e-05 ± 9.4e-06 | – |
| C8A U49C | < 1e-05 | – | – | < 1e-05 | < 1e-05 | – | – |
| G13U C50G | 4.84e-05 ± 1.3e-05 | – | 4.61e-05 ± 1.2e-05 | 6.9e-05 ± 1.6e-05 | 5.61e-05 ± 1.2e-05 | 2.19e-05 ± 1.1e-05 | 8.07e-05 ± 1.7e-05 |

Source: the supplement of paper PMC7125110
